Earlier results in publication PMC10866841.
Like-named read-outs stand apart in the source and are kept apart here.

Assays:
[1] = target: oligomeric amyloid-β (Homo sapiens) (UniProt P05067)
C4d C4d (Homo sapiens) [2] = target: C4d C4d (Homo sapiens) (UniProt P0C0L4)
[3] = target: oligomeric amyloid-β (Homo sapiens) (UniProt P05067); remark: listed apart in the source
C4d C4d (Homo sapiens) [4] = target: C4d C4d (Homo sapiens) (UniProt P0C0L4); remark: listed apart in the source

LILRB2, sequence (Q8N423 22-460): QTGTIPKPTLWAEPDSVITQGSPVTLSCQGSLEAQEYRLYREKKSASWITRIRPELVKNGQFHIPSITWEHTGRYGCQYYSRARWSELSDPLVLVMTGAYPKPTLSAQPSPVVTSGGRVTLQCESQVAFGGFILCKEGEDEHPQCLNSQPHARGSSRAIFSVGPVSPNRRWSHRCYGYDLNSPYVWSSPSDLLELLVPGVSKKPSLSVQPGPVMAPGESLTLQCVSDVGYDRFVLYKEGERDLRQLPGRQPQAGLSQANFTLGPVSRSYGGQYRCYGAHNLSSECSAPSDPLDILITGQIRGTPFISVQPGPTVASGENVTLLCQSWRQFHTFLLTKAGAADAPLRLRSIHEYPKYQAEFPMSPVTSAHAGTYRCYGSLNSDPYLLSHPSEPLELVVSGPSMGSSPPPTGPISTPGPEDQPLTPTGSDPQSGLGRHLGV
C4d C4d (Homo sapiens), sequence (P0C0L4 957-1336): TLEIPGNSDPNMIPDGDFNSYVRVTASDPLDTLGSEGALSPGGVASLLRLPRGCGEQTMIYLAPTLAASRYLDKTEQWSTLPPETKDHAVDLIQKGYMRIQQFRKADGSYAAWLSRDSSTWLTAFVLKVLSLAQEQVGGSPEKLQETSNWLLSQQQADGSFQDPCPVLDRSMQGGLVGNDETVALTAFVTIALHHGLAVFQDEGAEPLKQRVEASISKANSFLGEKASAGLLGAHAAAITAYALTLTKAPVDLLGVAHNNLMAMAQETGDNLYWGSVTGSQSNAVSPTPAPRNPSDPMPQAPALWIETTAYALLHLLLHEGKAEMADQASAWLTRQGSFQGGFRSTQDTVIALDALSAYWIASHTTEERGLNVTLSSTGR
PIRB, sequence (P97484 25-642): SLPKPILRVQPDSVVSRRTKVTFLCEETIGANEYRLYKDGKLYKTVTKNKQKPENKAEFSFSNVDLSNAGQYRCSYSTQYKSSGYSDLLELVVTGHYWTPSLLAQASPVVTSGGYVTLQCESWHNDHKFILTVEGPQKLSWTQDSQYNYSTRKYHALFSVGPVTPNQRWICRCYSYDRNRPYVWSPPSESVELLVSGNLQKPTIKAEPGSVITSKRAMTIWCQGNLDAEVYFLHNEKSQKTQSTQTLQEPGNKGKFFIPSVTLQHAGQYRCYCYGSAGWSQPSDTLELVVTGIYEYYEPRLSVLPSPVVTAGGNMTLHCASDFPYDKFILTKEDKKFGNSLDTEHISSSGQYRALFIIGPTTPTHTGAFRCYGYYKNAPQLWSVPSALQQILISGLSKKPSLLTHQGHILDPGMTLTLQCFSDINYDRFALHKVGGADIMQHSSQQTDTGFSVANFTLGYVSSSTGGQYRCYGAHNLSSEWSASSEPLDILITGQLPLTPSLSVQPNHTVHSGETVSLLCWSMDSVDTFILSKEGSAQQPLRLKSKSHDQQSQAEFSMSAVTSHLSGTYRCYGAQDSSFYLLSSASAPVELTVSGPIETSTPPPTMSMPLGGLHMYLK
oligomeric amyloid-β (Homo sapiens), sequence (P05067 672-713): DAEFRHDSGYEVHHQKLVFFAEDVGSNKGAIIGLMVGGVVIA

For LILRB2 (from UniProt Q8N423), the Kd [1] is listed as 180 nM and the Kd (C4d C4d (Homo sapiens) [2]) is listed as 630 nM.
In the case of PIRB (from UniProt P97484), the Kd [3] is listed as 180 nM and the Kd (C4d C4d (Homo sapiens) [4]) is listed as 630 nM.
